Test results as given in patent CN113817063A (XIAMEN INNOBIOMAX BIOTECHNOLOGY CO LTD, dated 2021).

Assays:
[1] = molecular target: T1, DP5 (DCP 41-55 15肽) (human); test: peptide competition ELISA on coated 抗原1
T1 peptide: WAKYTACETARTPRD

[2] = molecular target: T2, DP1 (DCP 1-15 15肽) (human); test: peptide competition ELISA on coated 抗原1
T2 peptide: ANTFLEEVRKGNLER

[3] = molecular target: T3, DP2 (DCP 11-25 15肽) (human); test: peptide competition ELISA on coated 抗原1
T3 peptide: GNLERECVEETCSYE

[4] = molecular target: T4, DP3 (DCP 21-35 15肽) (human); test: peptide competition ELISA on coated 抗原1
T4 peptide: TCSYEEAFEALESST

[5] = molecular target: T5, DP41 (DCP 31-38 8肽) (human); test: competition ELISA: 100ng/ml antibody pre-incubated with 50ug/ml 8-mer peptide, read on coated 抗原1
T5 peptide: LESSTATD

[6] = molecular target: T6, DP48 (DCP 38-45 8肽) (human); test: as above
T6 peptide: DVFWAKYT

[7] = molecular target: T7, DP44 (DCP 34-41 8肽) (human); test: as above
T7 peptide: STATDVFW

[8] = molecular target: T8, DP42 (DCP 32-39 8肽) (human); test: as above
T8 peptide: ESSTATDV

[9] = molecular target: T9, DP43 (DCP 33-40 8肽) (human); test: as above
T9 peptide: SSTATDVF

[10] = molecular target: T10, DP45 (DCP 35-42 8肽) (human); test: as above
T10 peptide: TATDVFWA

[11] = molecular target: T11, DP47 (DCP 37-44 8肽) (human); test: as above
T11 peptide: TDVFWAKY

[12] = molecular target: T12, DP46 (DCP 36-43 8肽) (human); test: as above
T12 peptide: ATDVFWAK

[13] = molecular target: T13, 人异常凝血酶原 (Des-γ-carboxyprothrombin) (human, UniProt P00734 44-622, 第6，7，14，16，19，20，25，26，29和32位的Glu残基一个或多个羧化不全 (not fully gamma-carboxylated)); test: sandwich ELISA, 11H8-3 capture, 10D9-1-HRP detection, DCP in controls and sera
T13 construct: also called DCP; PIVKA-II

[14] = molecular target: T5, DP41 (DCP 31-38 8肽); test: 8-mer peptide competition ELISA on coated 抗原1
[15] = molecular target: T6, DP48 (DCP 38-45 8肽); test: 8-mer peptide competition ELISA on coated 抗原1
[16] = molecular target: T8, DP42 (DCP 32-39 8肽); test: 8-mer peptide competition ELISA on coated 抗原1
[17] = molecular target: T10, DP45 (DCP 35-42 8肽); test: 8-mer peptide competition ELISA on coated 抗原1
[18] = molecular target: T11, DP47 (DCP 37-44 8肽); test: 8-mer peptide competition ELISA on coated 抗原1
[19] = molecular target: T12, DP46 (DCP 36-43 8肽); test: 8-mer peptide competition ELISA on coated 抗原1

competition rate (对照样品OD值-检测样品OD值)/对照样品OD值 [5]: -2%
competition rate (对照样品OD值-检测样品OD值)/对照样品OD值 [6]: 10%
competition rate (对照样品OD值-检测样品OD值)/对照样品OD值 [7]: 29%
competition rate (对照样品OD值-检测样品OD值)/对照样品OD值 [8]: 10%
competition rate (对照样品OD值-检测样品OD值)/对照样品OD值 [9]: 33%
competition rate (对照样品OD值-检测样品OD值)/对照样品OD值 [10]: -9%
competition rate (对照样品OD值-检测样品OD值)/对照样品OD值 [11]: 11%
competition rate (对照样品OD值-检测样品OD值)/对照样品OD值 [12]: 4%
binding result [13]: binds
binding result [14]: no binding (tested: 50ug/ml多肽)
binding result [15]: no binding (tested: 50ug/ml多肽)
binding result [16]: no binding (tested: 50ug/ml多肽)
binding result [17]: no binding (tested: 50ug/ml多肽)
binding result [18]: no binding (tested: 50ug/ml多肽)
binding result [19]: no binding (tested: 50ug/ml多肽)
B1: 抗人DCP单克隆抗体10D9-1 (antibody, IgG1, V domains shown)
VH: EVQLQQSGPELVKPGASVKMSCKASGYTFTSYVMHWVKQKPGQGLEWIGYIFPYNDVTEYNEKFKGKATLTSDKSSSTAYMELSSLTSEDSAVYYCARWGGRNYWGQGTSVTV
VL: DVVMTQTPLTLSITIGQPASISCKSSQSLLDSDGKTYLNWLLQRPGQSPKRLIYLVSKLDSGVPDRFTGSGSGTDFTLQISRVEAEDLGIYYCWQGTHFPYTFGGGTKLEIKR
notes: also called 抗人异常凝血酶原单克隆抗体; 10D9-1-HRP
binding result [1]: no binding (tested: 判定标准为:大于90%以上显示有良好的竞争效果; 50ug/ml多肽)
binding result [2]: no binding (tested: 判定标准为:大于90%以上显示有良好的竞争效果; 50ug/ml多肽)
binding result [3]: no binding (tested: 判定标准为:大于90%以上显示有良好的竞争效果; 50ug/ml多肽)
binding result [4]: no binding (tested: 判定标准为:大于90%以上显示有良好的竞争效果; 50ug/ml多肽)
